Legend:
[1] = molecular target: CD81(ECD)-ALP conjugate (human; bovine); experiment: HI-1000 capture immunoassay; calibrator C4, 220.80 mU/L; run 3
[2] = molecular target: CD81(ECD)-ALP conjugate (human; bovine); experiment: HI-1000 capture immunoassay; calibrator C4, 500 ng/mL; run 2
[3] = molecular target: CD81(ECD)-ALP conjugate (human; bovine); experiment: HI-1000 capture immunoassay; calibrator C2, 13.80 mU/L; run 3
[4] = molecular target: CD81(ECD)-ALP conjugate (human; bovine); experiment: HI-1000 capture immunoassay; calibrator C2, 20 ng/mL; run 1
[5] = molecular target: CD81(ECD)-ALP conjugate (human; bovine); experiment: HI-1000 capture immunoassay; calibrator C1, 4 ng/mL; mean of 3
[6] = molecular target: CD81(ECD)-ALP conjugate (human; bovine); experiment: HI-1000 capture immunoassay; calibrator C5, 2500 ng/mL; run 3
[7] = molecular target: CD81(ECD)-ALP conjugate (human; bovine); experiment: HI-1000 capture immunoassay; calibrator C2, 13.80 mU/L; run 2
[8] = molecular target: CD81(ECD)-ALP conjugate (human; bovine); experiment: HI-1000 capture immunoassay; calibrator C4, 500 ng/mL; mean of 3
[9] = molecular target: CD81(ECD)-ALP conjugate (human; bovine); experiment: HI-1000 capture immunoassay; calibrator C4, 220.80 mU/L; mean of 3
[10] = molecular target: CD81(ECD)-ALP conjugate (human; bovine); experiment: HI-1000 capture immunoassay; calibrator C3, 100 ng/mL; mean of 3
[11] = molecular target: CD81(ECD)-ALP conjugate (human; bovine); experiment: HI-1000 capture immunoassay; calibrator C2, 13.80 mU/L; run 1
[12] = molecular target: CD81(ECD)-ALP conjugate (human; bovine); experiment: HI-1000 capture immunoassay; calibrator C2, 13.80 mU/L; mean of 3
[13] = molecular target: CD81(ECD)-ALP conjugate (human; bovine); experiment: HI-1000 capture immunoassay; calibrator C2, 20 ng/mL; mean of 3
[14] = molecular target: CD81(ECD)-ALP conjugate (human; bovine); experiment: HI-1000 capture immunoassay; calibrator C4, 220.80 mU/L; run 2
[15] = molecular target: CD81(ECD)-ALP conjugate (human; bovine); experiment: HI-1000 capture immunoassay; calibrator C3, 55.20 mU/L; mean of 3
[16] = molecular target: CD81(ECD)-ALP conjugate (human; bovine); experiment: HI-1000 capture immunoassay; calibrator C5, 883.16 mU/L; mean of 3
[17] = molecular target: CD81(ECD)-ALP conjugate (human; bovine); experiment: HI-1000 capture immunoassay; calibrator C5, 2500 ng/mL; mean of 3
[18] = molecular target: CD81(ECD)-ALP conjugate (human; bovine); experiment: HI-1000 capture immunoassay; calibrator C3, 100 ng/mL; run 1
[19] = molecular target: CD81(ECD)-ALP conjugate (human; bovine); experiment: HI-1000 capture immunoassay; calibrator C2, 20 ng/mL; run 3
[20] = molecular target: CD81(ECD)-ALP conjugate (human; bovine); experiment: HI-1000 capture immunoassay; calibrator C5, 2500 ng/mL; run 1
[21] = molecular target: CD81(ECD)-ALP conjugate (human; bovine); experiment: HI-1000 capture immunoassay; calibrator C4, 500 ng/mL; run 3
[22] = molecular target: CD81(ECD)-ALP conjugate (human; bovine); experiment: HI-1000 capture immunoassay; calibrator C4, 500 ng/mL; run 1
[23] = molecular target: CD81(ECD)-ALP conjugate (human; bovine); experiment: HI-1000 capture immunoassay; calibrator C5, 2500 ng/mL; run 2
[24] = molecular target: CD81(ECD)-ALP conjugate (human; bovine); experiment: HI-1000 capture immunoassay; calibrator C3, 100 ng/mL; run 2
[25] = molecular target: CD81(ECD)-ALP conjugate (human; bovine); experiment: HI-1000 capture immunoassay; calibrator C1, 3.45 mU/L; run 3
[26] = molecular target: CD81(ECD)-ALP conjugate (human; bovine); experiment: HI-1000 capture immunoassay; calibrator C4, 220.80 mU/L; run 1
[27] = molecular target: CD81(ECD)-ALP conjugate (human; bovine); experiment: HI-1000 capture immunoassay; calibrator C2, 20 ng/mL; run 2
[28] = molecular target: CD81(ECD)-ALP conjugate (human; bovine); experiment: HI-1000 capture immunoassay; calibrator C1, 3.45 mU/L; run 2
[29] = molecular target: CD81(ECD)-ALP conjugate (human; bovine); experiment: HI-1000 capture immunoassay; calibrator C3, 55.20 mU/L; run 3
[30] = molecular target: CD81(ECD)-ALP conjugate (human; bovine); experiment: HI-1000 capture immunoassay; calibrator C5, 883.16 mU/L; run 3
[31] = molecular target: CD81(ECD)-ALP conjugate (human; bovine); experiment: HI-1000 capture immunoassay; calibrator C5, 883.16 mU/L; run 1
[32] = molecular target: CD81(ECD)-ALP conjugate (human; bovine); experiment: HI-1000 capture immunoassay; calibrator C1, 3.45 mU/L; mean of 3
[33] = molecular target: CD81(ECD)-ALP conjugate (human; bovine); experiment: HI-1000 capture immunoassay; calibrator C3, 55.20 mU/L; run 2
[34] = molecular target: CD81(ECD)-ALP conjugate (human; bovine); experiment: HI-1000 capture immunoassay; calibrator C1, 4 ng/mL; run 3
[35] = molecular target: CD81(ECD)-ALP conjugate (human; bovine); experiment: HI-1000 capture immunoassay; calibrator C1, 3.45 mU/L; run 1
[36] = molecular target: CD81(ECD)-ALP conjugate (human; bovine); experiment: HI-1000 capture immunoassay; calibrator C1, 4 ng/mL; run 2
[37] = molecular target: CD81(ECD)-ALP conjugate (human; bovine); experiment: HI-1000 capture immunoassay; calibrator C3, 100 ng/mL; run 3
[38] = molecular target: CD81(ECD)-ALP conjugate (human; bovine); experiment: HI-1000 capture immunoassay; calibrator C3, 55.20 mU/L; run 1
[39] = molecular target: CD81(ECD)-ALP conjugate (human; bovine); experiment: HI-1000 capture immunoassay; calibrator C1, 4 ng/mL; run 1
[40] = molecular target: CD81(ECD)-ALP conjugate (human; bovine); experiment: HI-1000 capture immunoassay; calibrator C5, 883.16 mU/L; run 2

CD81(ECD)-ALP conjugate (human; bovine), sequence (chain, as listed by the source, chain 1 of 2): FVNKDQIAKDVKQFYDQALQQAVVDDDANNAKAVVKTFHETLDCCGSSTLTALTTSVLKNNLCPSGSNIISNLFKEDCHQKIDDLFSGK
CD81(ECD)-ALP conjugate (human; bovine), sequence (P19111 20-506, chain 2 of 2): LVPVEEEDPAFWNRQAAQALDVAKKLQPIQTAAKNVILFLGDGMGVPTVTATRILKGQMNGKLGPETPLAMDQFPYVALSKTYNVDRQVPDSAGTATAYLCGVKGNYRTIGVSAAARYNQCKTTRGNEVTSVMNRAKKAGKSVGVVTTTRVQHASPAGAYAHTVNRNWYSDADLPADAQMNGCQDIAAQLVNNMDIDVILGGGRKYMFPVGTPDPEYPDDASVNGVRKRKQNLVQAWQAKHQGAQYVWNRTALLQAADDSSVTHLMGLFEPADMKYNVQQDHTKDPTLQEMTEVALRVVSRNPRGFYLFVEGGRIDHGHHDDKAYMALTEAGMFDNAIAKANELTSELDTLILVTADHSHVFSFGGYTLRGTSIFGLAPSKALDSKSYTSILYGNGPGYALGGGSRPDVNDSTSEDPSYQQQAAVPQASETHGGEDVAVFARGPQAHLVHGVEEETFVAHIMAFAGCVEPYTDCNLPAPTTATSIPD

## anti-CD81 antibody (Clone: 5A6)
[1]
  Count value: 102000 count
[2]
  Count value: 100000 count
[3]
  Count value: 4610 count
[4]
  Count value: 4480 count
[5]
  Count value (av): 1280 count
[6]
  Count value: 486000 count
[7]
  Count value: 4600 count
[8]
  Count value (av): 100000 count
[9]
  Count value (av): 102000 count
[10]
  Count value (av): 19900 count
[11]
  Count value: 4650 count
[12]
  Count value (av): 4620 count
[13]
  Count value (av): 4500 count
[14]
  Count value: 99500 count
[15]
  Count value (av): 20700 count
[16]
  Count value (av): 498000 count
[17]
  Count value (av): 494000 count
[18]
  Count value: 20000 count
[19]
  Count value: 4640 count
[20]
  Count value: 498000 count
[21]
  Count value: 99600 count
[22]
  Count value: 101000 count
[23]
  Count value: 496000 count
[24]
  Count value: 20000 count
[25]
  Count value: 1340 count
[26]
  Count value: 105000 count
[27]
  Count value: 4380 count
[28]
  Count value: 1430 count
[29]
  Count value: 20900 count
[30]
  Count value: 494000 count
[31]
  Count value: 503000 count
[32]
  Count value (av): 1380 count
[33]
  Count value: 20400 count
[34]
  Count value: 1280 count
[35]
  Count value: 1380 count
[36]
  Count value: 1300 count
[37]
  Count value: 19600 count
[38]
  Count value: 20900 count
[39]
  Count value: 1270 count
[40]
  Count value: 496000 count

Reference: patent publication US20240118272A1
